Experimental data reported in US20070196376A1 (AstraZeneca / MedImmune, published 2007).

How the values were obtained:
[1] = target: T1, human insulin-like growth factor-II (IGF-II) (human, UniProt P01344 25-91); experiment: Biacore low-resolution screen, mAb captured, IGF-II injected
T1 construct: also called IGF2; IGF-2
Description: (§1) The label-free surface plasmon resonance (SPR), or Biacore, was utilized to measure the antibody affinity to the antigen. For this purpose, a high-density goat anti-human antibody surface over a CM5 Biacore chip was prepared using routine amine coupling. All the mAbs were diluted to approximately 20 μg/ml in HBS-P running buffer containing 100 gg/ml BSA. Each mAb was captured on a separate surface using a 30-second contact time at 10 μL/min., and a 5-minute wash for stabilization of the mAb baseline.
(§2) The samples were prepared in the HBS-P running buffer described above. […] Drift-corrected binding data for the 34 mAbs was prepared by subtracting the signal from a control flow cell and subtracting the baseline drift of a buffer injected just prior to each antigen injection. […] A mass transport coefficient was used in fitting the data.

[2] = target: T1, human insulin-like growth factor-II …; experiment: cell-based or functional assay
[3] = target: T2, human insulin-like growth factor-I (IGF-I) (human, UniProt P05019 49-118); experiment: cell-based or functional assay
[4] = target: T1, human insulin-like growth factor-II …; experiment: cell-based or functional assay; remark: listed apart in the source
[5] = target: T1, human insulin-like growth factor-II …; experiment: Biacore low-resolution screen, mAb captured, IGF-II injected; off-rate held constant in the fit; off-rate marked with asterisk; low-resolution screen, 5-minute dissociation
Description: as §1, §2

[6] = target: T1, human insulin-like growth factor-II …; experiment: cell-based or functional assay; remark: listed apart in the source
[7] = target: T2, human insulin-like growth factor-I …; experiment: cell-based or functional assay; remark: listed apart in the source
[8] = target: T2, human insulin-like growth factor-I …; experiment: Biacore low-resolution screen, mAb captured, IGF-I injected
Description: as §1, §2

[9] = target: T2, human insulin-like growth factor-I …; experiment: Biacore high-resolution, mAb captured, IGF-I injected over a range of concentrations
[10] = target: T1, human insulin-like growth factor-II …; experiment: Biacore high-resolution, mAb captured, IGF-II injected over a range of concentrations
[11] = target: T1, human insulin-like growth factor-II …; experiment: Biacore low-resolution analysis, IGF-II
Description: as §1, §2

[12] = target: T1, human insulin-like growth factor-II …; experiment: cell-based or functional assay; remark: listed apart in the source
[13] = target: T2, human insulin-like growth factor-I …; experiment: cell-based or functional assay; remark: listed apart in the source
mouse IGF-II = mouse IGF-II (mouse, UniProt P09535 25-91); experiment: cell-based or functional assay
mouse IGF-I = mouse IGF-I (mouse, UniProt P05017 49-118); experiment: cell-based or functional assay
[14] = target: T2, human insulin-like growth factor-I …; experiment: Biacore low-resolution analysis, IGF-I; low-resolution screen, not high-resolution (294.0 pM)
Description: as §1, §2

[15] = target: T2, human insulin-like growth factor-I …; experiment: Biacore high-resolution, mAb captured, IGF-I injected over a range of concentrations; second value, row without label
[16] = target: T1, human insulin-like growth factor-II …; experiment: Biacore high-resolution, mAb captured, IGF-II injected over a range of concentrations; second value, row without label
[17] = target: T2, human insulin-like growth factor-I …; experiment: Biacore low-resolution analysis, IGF-I
Description: as §1, §2

B1: mAb 7.159.2 (antibody, V domains shown)
VH: QVQLVQSGAEVKKPGASVKVSCKASGYTFTSYDINWVRQATGQGLEWMGWMNPNSGNTGYAQKFQGRVTMTRNTSISTAYMELSSLRSEDTAVYYCARDPYYYYYGMDVWGQGTTVTVSS
VL: QSVLTQPPSVSAAPGQKVTISCSGSSSNIENNHVSWYQQLPGTAPKLLIYDNNKRPSGIPDRFSGSKSGTSATLGITGLQTGDEADYYCETWDTSLSAGRVFGGGTKLTVLG
notes: Fully human XenoMouse hybridoma mAb, lambda light chain (V1-19/JL2); Sister clones 7.159.1 and 7.159.2 are said to be identical; also called 7.159.1; 7_159_1
[1]
  Kd: < 2.86 pM
  kon: 3.5e+06 M⁻¹ s⁻¹
[2]
  EC50 (nM), n = 1, IGF-II pTYR, BxPC3 cells: 1.6 nM
  EC50 (nM), n = 2, IGF-II pTYR, BxPC3 cells: 1.7 nM
  Max % Inhibition (133.3 nM), n = 2, IGF-II pTYR, BxPC3 cells: 91.2%
  Max % Inhibition (333.3 nM), n = 1, IGF-II pTYR, BxPC3 cells: 100%
[3]
  EC50 (nM), n = 1, IGF-I pTYR, BxPC3 cells: 3.3 nM
  EC50 (nM), n = 2, IGF-I pTYR, BxPC3 cells: 1.6 nM
  Max % Inhibition (333.3 nM), n = 1, IGF-I pTYR, BxPC3 cells: 100%
  Max % Inhibition (333.3 nM), n = 2, IGF-I pTYR, BxPC3 cells: 100%
[4]
  EC50 (nM), n = 1, IGF-II Proliferation, BxPC3 cells: 0.8 nM
  EC50 (nM), n = 2, IGF-II Proliferation, BxPC3 cells: 0.9 nM
  Max % Inhibition (133.3 nM), n = 2, IGF-II Proliferation, BxPC3 cells: 118%
  Max % Inhibition (333.3 nM), n = 1, IGF-II Proliferation, BxPC3 cells: 120%
[5]
  koff: < 1e-05 s⁻¹
[6]
  % MAX Activation, mean (n = 2), IGF-II pTYR of hIGF-IR in NIH3T3 cells: 28.6%
  EC50 (nM), mean (n = 2), IGF-II pTYR of hIGF-IR in NIH3T3 cells: 3.1 nM
[7]
  % MAX Activation, mean (n = 2), IGF-I pTYR of hIGF-IR in NIH3T3 cells: 16.5%
  EC50 (nM), mean (n = 2), IGF-I pTYR of hIGF-IR in NIH3T3 cells: 7.4 nM
[8]
  Kd: 216 pM
  koff: 0.00093 s⁻¹
  kon: 4.3e+06 M⁻¹ s⁻¹
[9]
  Kd: 294 pM
[10]
  Kd: 1.9 pM
[11]
  Kd: 2.9 pM
[12]
  % Inhibition, mean (n = 2), IGF-II Proliferation Assay, NIH3T3/hIGF-IR cells: 99.3%
  EC50 (nM), mean (n = 2), IGF-II Proliferation Assay, NIH3T3/hIGF-IR cells: 7.6 nM
[13]
  % Inhibition, mean (n = 3), IGF-I Proliferation Assay, NIH3T3/hIGF-IR cells: 77%
  EC50 (nM), mean (n = 3), IGF-I Proliferation Assay, NIH3T3/hIGF-IR cells: 24.1 nM
Mouse IGF-II
  Mouse IGF-II EC50 (nM), n = 1, phosphorylation of hIGF-IR in NIH3T3 cells: 3.1 nM
  Mouse IGF-II EC50 (nM), n = 2, phosphorylation of hIGF-IR in NIH3T3 cells: 5 nM
Mouse IGF-I
  Mouse IGF-I EC50 (nM), n = 1, phosphorylation of hIGF-IR in NIH3T3 cells: 2.8 nM
  Mouse IGF-I EC50 (nM), n = 2, phosphorylation of hIGF-IR in NIH3T3 cells: 5.7 nM
[14]
  Kd: 216 pM

B2: mAb 7.34.1 (antibody, V domains shown)
VH: QVQLQESGPGLVKPSETLSLTCTVSGGSISSYYWSWIRQPPGRGLEWIGYFFYSGYTNYNPSLKSRVTMSVDTSKNQFSLKLSSVTAADTAVYYCACITGTTKGGMDVWGQGATVTVSS
VL: QSVLTQAPSVSGAPGQRVTISCTGRSSNIGAGYDVHWYQQFPGTAPKLLIYGNSNRPSGVPDRFSGSKSGTSASLAITGLQAEDEADYYCQSYDSSLSGSVFGGGTKLTVLG
notes: Fully human XenoMouse hybridoma mAb, lambda light chain (V1-13/JL2); also called ATCC PTA-7423
[1]
  Kd: 60 pM
  koff: 0.00018 s⁻¹
  kon: 3e+06 M⁻¹ s⁻¹
[2]
  EC50 (nM), n = 1, IGF-II pTYR, BxPC3 cells: 2 nM
  EC50 (nM), n = 2, IGF-II pTYR, BxPC3 cells: 1.9 nM
  Max % Inhibition (133.3 nM), n = 2, IGF-II pTYR, BxPC3 cells: 89.7%
  Max % Inhibition (333.3 nM), n = 1, IGF-II pTYR, BxPC3 cells: 100%
[3]
  EC50 (nM), n = 1, IGF-I pTYR, BxPC3 cells: 5.9 nM
  EC50 (nM), n = 2, IGF-I pTYR, BxPC3 cells: 3.8 nM
  Max % Inhibition (333.3 nM), n = 1, IGF-I pTYR, BxPC3 cells: 100%
  Max % Inhibition (333.3 nM), n = 2, IGF-I pTYR, BxPC3 cells: 98.5%
[4]
  EC50 (nM), n = 1, IGF-II Proliferation, BxPC3 cells: 0.5 nM
  EC50 (nM), n = 2, IGF-II Proliferation, BxPC3 cells: 6.7 nM
  Max % Inhibition (133.3 nM), n = 2, IGF-II Proliferation, BxPC3 cells: 109%
  Max % Inhibition (333.3 nM), n = 1, IGF-II Proliferation, BxPC3 cells: 117%
[15]
  Kd: 421 pM
[6]
  % MAX Activation, mean (n = 2), IGF-II pTYR of hIGF-IR in NIH3T3 cells: 21.5%
  EC50 (nM), mean (n = 2), IGF-II pTYR of hIGF-IR in NIH3T3 cells: 2.5 nM
[7]
  % MAX Activation, mean (n = 2), IGF-I pTYR of hIGF-IR in NIH3T3 cells: 14.2%
  EC50 (nM), mean (n = 2), IGF-I pTYR of hIGF-IR in NIH3T3 cells: 9.4 nM
[8]
  Kd: 615 pM
  koff: 0.0032 s⁻¹
  kon: 5.2e+06 M⁻¹ s⁻¹
[16]
  Kd: 162 pM
[9]
  Kd: 436 pM
[10]
  Kd: 164 pM
[17]
  Kd: 615 pM
[11]
  Kd: 60 pM
[12]
  % Inhibition, mean (n = 2), IGF-II Proliferation Assay, NIH3T3/hIGF-IR cells: 73.6%
  EC50 (nM), mean (n = 2), IGF-II Proliferation Assay, NIH3T3/hIGF-IR cells: 16.3 nM
[13]
  % Inhibition, mean (n = 3), IGF-I Proliferation Assay, NIH3T3/hIGF-IR cells: 72.6%
  EC50 (nM), mean (n = 3), IGF-I Proliferation Assay, NIH3T3/hIGF-IR cells: 23.4 nM
Mouse IGF-II
  Mouse IGF-II EC50 (nM), n = 1, phosphorylation of hIGF-IR in NIH3T3 cells: 4 nM
  Mouse IGF-II EC50 (nM), n = 2, phosphorylation of hIGF-IR in NIH3T3 cells: 9.7 nM
Mouse IGF-I
  Mouse IGF-I EC50 (nM), n = 1, phosphorylation of hIGF-IR in NIH3T3 cells: 6 nM
  Mouse IGF-I EC50 (nM), n = 2, phosphorylation of hIGF-IR in NIH3T3 cells: 10.2 nM

B3: mAb 7.234.2 (antibody, V domains shown)
VH: QLQLQESGPGLVKPSETLSLTCTVSGGSINSSSNYWGWIRQPPGKGLAWIGGIYYSGSTYYNPSLRSRVTMSVDTSKNQFSLKLSSVTAADTAVYYCARQRGHSSGWWYFDLWGRGTLVTVSS
VL: DIQMTQSPSSVSASVGDRVTITCRASRGISSWLAWYQQRPGKAPKLLIYTASSLQSGVPSRFSGSGSGTDFTLTISSLQPEDFATYYCQQANSFPFTFGPGTKVDIKR
notes: Kappa light chain (L5/JK3); also called 7.234.1; 7_234_1
[1]
  Kd: 45.3 pM
  koff: 0.00029 s⁻¹
  kon: 6.4e+06 M⁻¹ s⁻¹
[2]
  EC50 (nM), n = 1, IGF-II pTYR, BxPC3 cells: 1.9 nM
  EC50 (nM), n = 2, IGF-II pTYR, BxPC3 cells: 2.3 nM
  Max % Inhibition (133.3 nM), n = 2, IGF-II pTYR, BxPC3 cells: 77.3%
  Max % Inhibition (333.3 nM), n = 1, IGF-II pTYR, BxPC3 cells: 98.5%
[3]
  EC50 (nM), n = 1, IGF-I pTYR, BxPC3 cells: 5.1 nM
  EC50 (nM), n = 2, IGF-I pTYR, BxPC3 cells: 2.9 nM
  Max % Inhibition (333.3 nM), n = 1, IGF-I pTYR, BxPC3 cells: 97.3%
  Max % Inhibition (333.3 nM), n = 2, IGF-I pTYR, BxPC3 cells: 91.5%
[4]
  EC50 (nM), n = 2, IGF-II Proliferation, BxPC3 cells: 2.6 nM
  Max % Inhibition (133.3 nM), n = 2, IGF-II Proliferation, BxPC3 cells: 201%
  Max % Inhibition (333.3 nM), n = 1, IGF-II Proliferation, BxPC3 cells: 112%
[6]
  % MAX Activation, mean (n = 2), IGF-II pTYR of hIGF-IR in NIH3T3 cells: 21.1%
  EC50 (nM), mean (n = 2), IGF-II pTYR of hIGF-IR in NIH3T3 cells: 7.7 nM
[7]
  % MAX Activation, mean (n = 2), IGF-I pTYR of hIGF-IR in NIH3T3 cells: 21.1%
  EC50 (nM), mean (n = 2), IGF-I pTYR of hIGF-IR in NIH3T3 cells: 24.3 nM
[8]
  Kd: 328 pM
  koff: 0.0022 s⁻¹
  kon: 6.7e+06 M⁻¹ s⁻¹
[9]
  Kd: 3760 pM
[10]
  Kd: 295 pM
[17]
  Kd: 328 pM
[11]
  Kd: 45.3 pM
[12]
  % Inhibition, mean (n = 2), IGF-II Proliferation Assay, NIH3T3/hIGF-IR cells: 62.1%
  EC50 (nM), mean (n = 2), IGF-II Proliferation Assay, NIH3T3/hIGF-IR cells: 24.3 nM
[13]
  % Inhibition, mean (n = 3), IGF-I Proliferation Assay, NIH3T3/hIGF-IR cells: 67.3%
  EC50 (nM), mean (n = 3), IGF-I Proliferation Assay, NIH3T3/hIGF-IR cells: 40.6 nM
Mouse IGF-II
  Mouse IGF-II EC50 (nM), n = 1, phosphorylation of hIGF-IR in NIH3T3 cells: 36.1 nM
Mouse IGF-I
  Mouse IGF-I EC50 (nM), n = 1, phosphorylation of hIGF-IR in NIH3T3 cells: 46 nM
